This is an account of results in article PMC4320081.

Read-outs that look alike come from different tables or passages of the source.

For assay [1], the target named is native Tsal proteins in G. m. morsitans saliva (Glossina morsitans morsitans (endogenous in saliva)). Kind of assay: SPR; 4000 RU G. m. morsitans saliva amine-coupled (10 mM sodium acetate pH 4.5) on a CM5 chip; purified Nb analytes 500 to 0.976 nM; BIAcore T200; contact 180 s, dissociation 600 s, 10 ul/min; Langmuir 1:1 fit. Background: Surface plasmon resonance follows binding to a sensor surface in real time, without labels.

The target is the same in assay [2]. In words: ELISA; competitive ELISA: 250 ng G. m. morsitans saliva coated per well, plasma (immune, naive or control) applied 1 h, then HRP-conjugated Nb (1:160 or 1:320) 1 h; ABTS, O.D. 405 nm. On the technique in general: An ELISA detects its analyte on a solid surface through an enzyme-linked reagent.
Assay [3] has the same target. The assay is described as above. This is another data set of the same source.

B1: TsalNb-5 (VHH)
VHH: QVQLQESGGGLVQPGGSLRLSCAGSGLTLDYYAMGWYRQAPGKQREGVSCITSSGGRTNYADSVKGRFTISRDNAKNTVSLQMNSLKPEDTAVYYCAATEWLAGTKCLLSHEYDYWGQGTQVTVSS
Turning to B1, in assay [1], the Kd – broadly, the equilibrium constant for the complex coming apart – was found to be 4.4 nM; the koff (commonly a measure of how fast the partners let go of each other) amounted to 0.004 s⁻¹; the kon (commonly the second-order rate constant of association) amounted to 910000 M⁻¹ s⁻¹.

B2: TsalNb-5-HRP (VHH)
VHH: QVQLQESGGGLVQPGGSLRLSCAGSGLTLDYYAMGWYRQAPGKQREGVSCITSSGGRTNYADSVKGRFTISRDNAKNTVSLQMNSLKPEDTAVYYCAATEWLAGTKCLLSHEYDYWGQGTQVTVSS
On to B2, for which the mean endpoint O.D.405nm of controls (control mouse plasma) in assay [2] was 2.26 O.D._(405nm). Besides, the mean endpoint O.D.405nm of controls (control porcine plasma) in assay [2] was 2.31 O.D._(405nm); in assay [3] it was 2.23 O.D._(405nm).

B3: TsalNb-8 (VHH)
VHH: QVQLQESGGGLVQPGGSLRLSCAASVLTLDYYAMAWYRQAPGKQREGVSCITSSGGRTNYADSVKGRFTISRDNAKNMVYLQMNSLKPEDTAVYYCAATEWLAGTKCLSSHEYDYWGQGTQVTVSS
In assay [1], B3 displayed a Kd of 18 nM, a koff of 0.017 s⁻¹ and a kon of 970000 M⁻¹ s⁻¹.

B4: TsalNb-1 (VHH)
VHH: QVQLQESGGGLVQVGGSLRLSCTASGSIFSINYANWYRQAPGKQRELVAGITSDGSTNYADSVKGRFTISRDNAKNTVYLQMNRLTPEDTAVYYCKPRAWLTGRWENYWGQGTQVTVSS
In assay [1], B4 came in with a Kd of 0.44 nM, a koff of 0.00037 s⁻¹ and a kon of 850000 M⁻¹ s⁻¹.

B5: TsalNb-3 (VHH)
VHH: QVQLQESGGGLVQVGGSLRLSCAVSGSIFSNNYMGWYRQAPGKQRELVAGITSGGSTNYADSVKGRFTISRDNAKNTVYLQMNSLLPEDTAVYYCKPRGWLTGRWENYWGQGTQVTVSS
In assay [1], B5 returned a Kd of 0.54 nM, a koff of 0.00051 s⁻¹ and a kon of 930000 M⁻¹ s⁻¹.

B6: TsalNb-12 (VHH)
VHH: QVQLQESGGGLVQPGGSLRLSCTASGSIFSINYANWYRQAPGKQRELVAGITSDGSTNYADSVKGRFTISRDNAKNTVYLQMNRLTPEDTAVYYCKPRAWLTGRWENYWGQGTQVTVSS
In assay [1], B6 registered a Kd of 0.47 nM, a koff of 0.00039 s⁻¹ and a kon of 830000 M⁻¹ s⁻¹.

B7: TsalNb-10 (VHH)
VHH: QVQLQESGGGLVQVGGSLRLSCAASGSIFSNNYMGWYRQAPGKQRELVAGITSGGSTNYADSVKGRFTISRDNAKNTVYLQMNNLKPEDTAVYNCKPRGWLTGRWENYWGQGTQVTVSS
Consider B7, for which, in assay [1], the Kd turned out to be 0.79 nM, the koff was found to be 0.001 s⁻¹ and the kon came out at 1.3e+06 M⁻¹ s⁻¹.

B8: TsalNb-2 (VHH)
VHH: QVQLQESGGGLVQVGGSLRLSCQASGSIFSNSYMGWYRQAPGKQRELVAGITSGGSTNYADSVKGRFTISRDNAKNTVYLQMNSLKPEDTAVYYCKPRAWLTGRWENYWGQGTQVTVSS
In the case of B8, in assay [1], the Kd came to 0.64 nM, the koff is 0.00077 s⁻¹ and the kon is 1.2e+06 M⁻¹ s⁻¹.

B9: TsalNb-4 (VHH)
VHH: QVQLQESGGGLVQVGGSLRLSCTASGSIFSINYAGWYRQAPGKQRELVAGITSGGSTNYADSVKGRFTISRDSAKNTVYLQMNSLKAEDTAVYYCKPRAWLTGRWENYWGQGTQVTVSS
Take B9: in assay [1], the Kd worked out at 0.44 nM, the koff came to 0.0005 s⁻¹ and the kon was 1.1e+06 M⁻¹ s⁻¹.

B10: TsalNb-11 (VHH)
VHH: QVQLQESGGGLVQPGESLRLSCAASEFTLDYYAMAWYRQAPGKQREGVSCITSSGGRTNYADSVKGRFTISRENGKNTVYLQMSSLKPGDTAVYYCAATEWLAGTKCLGSHEYDYWGQGTQVTVSS
Turning to B10, in assay [1], the Kd was found to be 2.7 nM, the koff is 0.0035 s⁻¹ and the kon was determined as 1.3e+06 M⁻¹ s⁻¹.

B11: TsalNb-11-HRP (VHH)
VHH: QVQLQESGGGLVQPGESLRLSCAASEFTLDYYAMAWYRQAPGKQREGVSCITSSGGRTNYADSVKGRFTISRENGKNTVYLQMSSLKPGDTAVYYCAATEWLAGTKCLGSHEYDYWGQGTQVTVSS
For the molecule B11, in assay [2], the mean endpoint O.D.405nm of controls (control mouse plasma) was 2.35 O.D._(405nm) and the mean endpoint O.D.405nm of controls (control porcine plasma) is 2.24 O.D._(405nm). The mean endpoint O.D.405nm of controls (control porcine plasma) in assay [3] is 2.29 O.D._(405nm).
